Results on three molecules are retold here after patent publication US10669549B2, “Gold optimized CAR T-cells” (Chimera Bioengineering, Inc., priority 2016, dated 2020).

What all share (format): cell-based
In data set [1] the test system is CD4+ T-cells. Put plainly: Luciferase bioluminescence of transduced T-cells, resting versus stimulated. The conditions noted are these: for bioluminescence as compared to T-cells at resting: Raji target cells (activate CAR), FIG. 17; for amount of bioluminescence, comparison among RDE constructs: with either promoter (MinP or NFAT). An excerpt:
The anti-CD19 CAR cassette and the insert with the luciferase-RDE1 are transcribed in opposite directions, and the control regions for each are located in between the two insert/cassettes. The control region for the Luciferase-RDE1 insert and Luciferase-3′-UTR were either a MinP promoter or an NFAT promoter having the sequences of:
The control region of the anti-CD19 CAR cassette was the MND promoter. CD4+ T-cells were transduced with the bicistronic construct.
The transduced T cells were allowed to return to resting state, and then were tested after stimulation as follows. For the ‘no stimulation’ set, transduced T-cells were incubated for 24 h alone in medium. For the ‘Raji co-culture’ set and the “CD3/CD28 Beads” set, CD19+ Raji B cells or anti-CD3/anti-CD28 beads were incubated with the transduced T cells for 24 h. At 24 h, the T cells were stained for CD25 and CD69, which are activation markers, and subject to flow cytometry to measure these markers and luciferase expression in the T cells.
Combinations of these inserts/cassettes shown in FIG. 17 were placed in the similar lenti virus constructs. The anti-CD19 CAR cassette and the insert with the luciferase-RDE are transcribed in opposite directions, and the control regions for each are located in between the two insert/cassettes. The control region for the Luciferase-RDE insert and Luciferase-3′-UTR were either a MinP promoter or an NFAT promoter. The control region of the anti-CD19 CAR cassette was the MND promoter, and CD4+ T-cells were transduced with the bicistronic construct.
The transduced T cells were allowed to return to resting state, and then were tested after stimulation as follows. For the ‘no stimulation’ set, transduced T-cells were incubated for 24 h alone in medium. For the ‘Raji co-culture’ set CD19+ Raji B cells were incubated with the transduced T cells for 24 h. At 24 h, the T cells were stained for CD25 and CD69, which are activation markers, and subject to flow cytometry to measure these markers and luciferase expression in the T cells.

The nature of data set [2]: Expression from constructs with 3′-UTR RDEs after removal of microRNA binding sites. The conditions noted are these: MIR186 micro-RNA sites removed from the 3′-UTR of IL-2. The text has this: The AU-rich element from the 3′-UTR of IL-2 has mir-181 and mir 186 microRNA binding sites. Different combinations of the microRNA sites were removed from the 3′-UTR of IL-2. When the MIR186 micro-RNA sites were removed from the 3′-UTR of IL-2 the dynamic range of expression from constructs with this UTR increased 50 fold. The modified IL-2, 3′-UTR replaces CTT in the sequence with GAA and is shown below (the new GAA is underlined in the sequence):
Different combinations of the micro-RNA sites were removed from the 3′UTR of IFNg and tested for increased expression. When the mir125 micro-RNA sites were removed from the 3′-UTR of IFN-γ the expression rate from constructs with this UTR is increased.

In data set [3] the test system is CD4+ T-cells. Put plainly: IL-12 expression of transduced T cells by ELISA, resting versus Raji co-culture. The text has this: The anti-CD19 CAR cassette and the insert with the IL-12-RDE1 are transcribed in opposite directions, and the control regions for each are located in between the two insert/cassettes. The control region for the IL-12-RDE1 insert and IL-12 3′-UTR were either a minP promoter or an NFAT promoter. The control region of the anti-CD19 CAR cassette was the MND promoter. CD4+ T-cells were transduced with the bicistronic construct.
The transduced T cells were allowed to return to resting state, and then were tested after stimulation as follows. For the ‘no stimulation’ set, transduced T-cells were incubated for 24 h alone in medium. For the ‘Raji co-culture’ set, CD19+ Raji B cells were incubated with the transduced T cells for 24 h. At 24 h, the T cells were stained for CD25 and CD69, which are activation markers, and subject to flow cytometry to measure these markers. IL-12 expression in the T cells was measured by ELISA.
(In an ELISA, binding on a coated surface is turned into a signal by an enzyme label.)

Numbering of substitutions follows the chain as printed.

B1: RDE3: 3′-UTR of IL-2 modified to remove the mir186 sites (CTT replaced with GAA, SEQ ID NO: 29) (nucleic acid, listed as Homo sapiens)
DNA: TAATTAAGTGCTTCCCACTTAAAACATATCAGGCCTTCTATTTATTTAAATATTTAAATTTTATATTTATTGTTGAATGTATGGTTTGCTACCTATTGTAACTATTATTCTTAATCTTAAAACTATAAATATGGATCTTTTATGATTGAATTTGTAAGCCCTAGGGGCTCTAAAATGGTTTCACTTATTTATCCCAAAATATTTATTATTATGTTGAATGTTAAATATAGTATCTATGTAGATTGGTTAGTAAAACTATTTAATAAATTTGATAAATATAAA
Turning to B1, the “increase in bioluminescence with CAR stimulation” value (“increase … with CAR stimulation” below) in data set [1] (MinP promoter) worked out at 1.4 fold; in data set [1] (NFAT promoter), 1.3 fold. The “bioluminescence as compared to T-cells at resting” value in data set [1] is recorded as “increase in bioluminescence”. For the same molecule, the “amount of bioluminescence, comparison among RDE constructs” value (“amount … comparison among RDE constructs” for short) in data set [1] was “highest amount of bioluminescence”. Also, the “increase of dynamic range of expression from constructs with this UTR” value in data set [2] amounted to 50 fold.

B2: RDE2: RNA destabilizing element: endogenous 3′-UTR of IL-2 (SEQ ID NO: 28), controlling luciferase in anti-CD19 CAR CD4+ T-cells (nucleic acid, listed as Homo sapiens)
DNA: B1 DNA with G148C, A149T, A150T
As to B2, the “increase … with CAR stimulation” value in data set [1] (MinP promoter) amounted to 1.8 fold; in data set [1] (NFAT promoter) it was 3.1 fold. For the same molecule, in data set [1], the “bioluminescence as compared to T-cells at resting” value was “increase in bioluminescence”. The “amount … comparison among RDE constructs” value in data set [1] is “between RDE3 and RDE1”.

B3: RDE1: RNA destabilizing element: endogenous 3′-UTR of IFNg (SEQ ID NO: 30), controlling luciferase or IL-12 in anti-CD19 CAR CD4+ T-cells (nucleic acid, listed as Homo sapiens)
DNA: TGGTTGTCCTGCCTGCAATATTTGAATTTTAAATCTAAATCTATTTATTAATATTTAACATTATTTATATGGGGAATATATTTTTAGACTCATCAATCAAATAAGTATTTATAATAGCAACTTTTGTGTAATGAAAATGAATATCTATTAATATATGTATTATTTATAATTCCTATATCCTGTGACTGTCTCACTTAATCCTTTGTTTTCTGACTAATTAGGCAAGGCTATGTGATTACAAGGCTTTATCTCAGGGGCCAACTAGGCAGCCAACCTAAGCAAGATCCCATGGGTTGTGTGTTTATTTCACTTGATGATACAATGAACACTTATAAGTGAAGTGATACTATCCAGTTACTGCCGGTTTGAAAATATGCCTGCAATCTGAGCCAGTGCTTTAATGGCATGTCAGACAGAACTTGAATGTGTCAGGTGACCCTGATGAAAACATAGCATCTCAGGAGATTTCATGCCTGGTGCTTCCAAATATTGTTGACAACTGTGACTGTACCCAAATGGAAAGTAACTCATTTGTTAAAATTATCAATATCTAATATATATGAATAAAGTGTAAGTTCACAACTA
Take B3: the “change in IL-12 expression from resting to CAR stimulation” value in data set [3] (MinP promoter) was 6.3 fold; in data set [3] (NFAT promoter) it was 168 fold. Moreover, the “increase … with CAR stimulation” value in data set [1] (MinP promoter) turned out to be 4.1 fold; in data set [1] (NFAT promoter), 8.5 fold. Moreover, in data set [1] (NFAT promoter, luciferase), the “on-off response from CAR stimulation versus TCR stimulation” value is reported as “larger on-off response”. Besides, the “bioluminescence as compared to T-cells at resting” value in data set [1] is recorded as “increase in bioluminescence”. Besides, the “amount of bioluminescence compared with luciferase not controlled by an RDE (3′-UTR)” value in data set [1] (all conditions, same promoter) is given as “lower amounts of bioluminescence”. Moreover, in data set [1] (luciferase, Raji co-culture), the “on-off response with NFAT promoter compared with MinP promoter and the corresponding RDE” value is recorded as “larger on-off response”. In addition, the “amount … comparison among RDE constructs” value in data set [1] was “lowest amount of bioluminescence”.
